Measured values reported in patent US20030143669.

Experiments:
[1] = tested on: CHO-expressed epitope-tagged, soluble human phosphodiester α-GlcNAcase
[2] = tested on: Insect-expressed epitope-tagged human phosphodiester α-GlcNAcase lacking the pro-sequence

Furin
UCE activity, % increase relative to the minus Furin samples [1]: up to 130% increase in activity | Western blot of cleavage (pro-UCE to mature UCE) [1]: the CHO-derived UCE is sensitive to furin cleavage as shown by the progressive conversion of the pro-UCE to the mature form | Western blot of cleavage; UCE activity [2]: the insect-derived UCE is not cleaved by furin as shown by the single UCE form
